The results in this text go back to paper PMC7803741.

By Kd is commonly meant the concentration at which binding is half-saturated. One may read the stoichiometry N as the number of molecules, sites or subunits per partner or assembly.

The target of one assay is GABARAP (UniProt Q9DCD6). As to the kind of experiment: ITC. Conditions: reference: unphosphorylated synthetic γ2-GIM peptide; sites Y405.
The target of assay [1] is clathrin adaptor protein AP2 (AP2 μ1 subunit as printed) (UniProt P84092). Kind of assay: ITC. Conditions: reference: unphosphorylated synthetic γ2-GIM peptide; sites Y405.
Sequence of clathrin adaptor protein AP2 (AP2 μ1 subunit as printed) (P84092 whole entry, looked up, tested part not stated): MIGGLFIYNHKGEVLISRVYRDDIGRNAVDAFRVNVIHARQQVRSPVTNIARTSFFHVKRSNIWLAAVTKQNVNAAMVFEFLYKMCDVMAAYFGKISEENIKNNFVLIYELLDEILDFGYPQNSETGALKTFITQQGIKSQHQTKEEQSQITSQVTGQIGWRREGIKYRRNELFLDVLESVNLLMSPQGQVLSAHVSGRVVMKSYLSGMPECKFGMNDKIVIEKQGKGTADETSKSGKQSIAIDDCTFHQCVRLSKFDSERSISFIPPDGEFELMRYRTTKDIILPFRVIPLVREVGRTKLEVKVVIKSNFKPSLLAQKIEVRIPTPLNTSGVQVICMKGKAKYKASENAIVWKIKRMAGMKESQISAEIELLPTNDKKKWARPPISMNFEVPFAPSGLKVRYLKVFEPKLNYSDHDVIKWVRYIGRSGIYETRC
The target in assay [2] is GABAAR-associated protein (GABARAP) (mouse) (UniProt Q9DCD6). Kind of assay: ITC; VP-ITC, 25 °C; 50 mM Tris pH 7.8, 100 mM NaCl, 1 mM EDTA, 1 mM DTT; γ2 subunit protein or peptide (100–200 μM) injected into GABARAP, GABARAPL1 or AP2 (10–20 μM) in the cell; one-site binding model.
Sequence of GABAAR-associated protein (GABARAP) (mouse) (Q9DCD6 whole entry): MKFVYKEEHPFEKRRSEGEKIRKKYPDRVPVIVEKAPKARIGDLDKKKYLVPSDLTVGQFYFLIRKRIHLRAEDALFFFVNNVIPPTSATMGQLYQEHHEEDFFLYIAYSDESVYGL
For assay [3], the target named is clathrin adaptor protein AP2 (AP2 μ1 subunit as printed) (rat) (UniProt P84092). The assay is described as above.
Sequence of clathrin adaptor protein AP2 (AP2 μ1 subunit as printed) (rat) (P84092 whole entry): as the sequence (P84092 whole entry, looked up, tested part not stated) above
Assay [4] deals with GABAA receptor-associated protein (GABARAP) (mouse) (UniProt Q9DCD6). As to the kind of experiment: ITC; VP-ITC at 25 °C; 50 mM Tris pH 7.8, 100 mM NaCl, 1 mM EDTA, 1 mM DTT; γ2 subunit protein or peptide (100-200 μM) injected into GABARAP, GABARAPL1 or AP2 (10-20 μM) in the cell; one-site binding model. On the technique in general: ITC needs no label: the signal is the heat of the interaction.
Sequence of GABAA receptor-associated protein (GABARAP) (mouse) (Q9DCD6 whole entry): as the sequence (Q9DCD6 whole entry) above

For assay [5], the target named is GABAAR-associated protein (GABARAP) (mouse) (UniProt Q9DCD6). Kind of assay: ITC; VP-ITC, 25 °C; 50 mM Tris pH 7.8, 100 mM NaCl, 1 mM EDTA, 1 mM DTT; γ2 subunit protein or peptide (100–200 μM) injected into GABARAP, GABARAPL1 or AP2 (10–20 μM) in the cell; one-site binding model. This is another data set of the same source.

Read-outs that look alike come from different tables or passages of the source.

Sequence of GABARAP (Q9DCD6 whole entry, looked up): as the sequence (Q9DCD6 whole entry) above

On to “GABAA receptor γ2 subunit (γ2-GABAAR; γ2-GIM = residues 398–415) γ2-GIM, 398-415 (from UniProt P22723-2) pY405 peptide”, for which the “binding against the reference” value (in the assay with GABARAP; in assay [1]) was “lost” each time. In the case of “recombinant of the TM3–TM4 ICD lacking the 424–441 octadecapeptide (from UniProt P22723-2 375-442) (domain or fragment)”, in assay [2], the Kd is 5.1 µM.

For the substance “synthesized γ2-GIM WT peptide (from UniProt P22723-2 398-415)”, the values for the Kd in assay [2] and in assay [3] were 3.6 µM and 0.45 µM, respectively. “GABAA receptor γ2 subunit GIM (GABARAP interacting motif, 398-415) (peptide)”: the stoichiometry N in assay [4] came to 1.06.

In the case of “GABAAR γ2 subunit GIM (GABARAP interacting motif, 398–415) (from UniProt P22723-2 398-415) (peptide)”, the Kd in assay [5] stood at 4.9 µM; in assay [2], 4.2 µM; in assay [3], 0.25 µM. Turning to “synthetic pY403 γ2-GIM (from UniProt P22723-2 398-415) (peptide)”, the Kd in assay [2] is 0.82 µM; in assay [3], 5.2 µM.
